Experimental data: the supplement of paper PMC10065799, “High-throughput profiling of sequence recognition by tyrosine kinases and SH2 domains using bacterial peptide display” (eLife, 2023)

Columns and labels:
c-Abl (mouse) = assay: phosphorylation enrichment, bacterial display (enrichment ratio); higher = better substrate or ligand; peptides without Tyr show the background
Fyn = Fyn (UniProt P06241); assay: as above
FGFR1 = FGFR1 (UniProt P11362); assay: as above
Hck = Hck (UniProt P08631); assay: as above
Sequence of Hck (P08631 whole entry, looked up): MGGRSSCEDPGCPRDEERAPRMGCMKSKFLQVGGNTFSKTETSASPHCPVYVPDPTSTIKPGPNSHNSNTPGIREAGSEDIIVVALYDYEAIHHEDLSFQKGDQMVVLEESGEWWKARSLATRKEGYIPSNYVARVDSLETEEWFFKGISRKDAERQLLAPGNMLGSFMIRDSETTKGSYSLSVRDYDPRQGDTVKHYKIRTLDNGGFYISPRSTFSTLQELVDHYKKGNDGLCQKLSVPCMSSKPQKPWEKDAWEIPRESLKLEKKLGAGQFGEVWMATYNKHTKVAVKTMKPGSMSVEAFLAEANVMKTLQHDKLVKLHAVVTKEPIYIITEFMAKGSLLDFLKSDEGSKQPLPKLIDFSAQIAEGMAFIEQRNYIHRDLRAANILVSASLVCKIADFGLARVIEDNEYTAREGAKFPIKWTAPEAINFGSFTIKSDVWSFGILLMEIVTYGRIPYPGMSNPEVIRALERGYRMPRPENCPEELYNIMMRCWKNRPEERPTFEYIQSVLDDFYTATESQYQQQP

Fes = Fes (UniProt P07332); assay: as above
c-Src = assay: as above
EPHB1 = EPHB1 (UniProt P54762); assay: as above
Sequence of EPHB1 (P54762 whole entry, looked up): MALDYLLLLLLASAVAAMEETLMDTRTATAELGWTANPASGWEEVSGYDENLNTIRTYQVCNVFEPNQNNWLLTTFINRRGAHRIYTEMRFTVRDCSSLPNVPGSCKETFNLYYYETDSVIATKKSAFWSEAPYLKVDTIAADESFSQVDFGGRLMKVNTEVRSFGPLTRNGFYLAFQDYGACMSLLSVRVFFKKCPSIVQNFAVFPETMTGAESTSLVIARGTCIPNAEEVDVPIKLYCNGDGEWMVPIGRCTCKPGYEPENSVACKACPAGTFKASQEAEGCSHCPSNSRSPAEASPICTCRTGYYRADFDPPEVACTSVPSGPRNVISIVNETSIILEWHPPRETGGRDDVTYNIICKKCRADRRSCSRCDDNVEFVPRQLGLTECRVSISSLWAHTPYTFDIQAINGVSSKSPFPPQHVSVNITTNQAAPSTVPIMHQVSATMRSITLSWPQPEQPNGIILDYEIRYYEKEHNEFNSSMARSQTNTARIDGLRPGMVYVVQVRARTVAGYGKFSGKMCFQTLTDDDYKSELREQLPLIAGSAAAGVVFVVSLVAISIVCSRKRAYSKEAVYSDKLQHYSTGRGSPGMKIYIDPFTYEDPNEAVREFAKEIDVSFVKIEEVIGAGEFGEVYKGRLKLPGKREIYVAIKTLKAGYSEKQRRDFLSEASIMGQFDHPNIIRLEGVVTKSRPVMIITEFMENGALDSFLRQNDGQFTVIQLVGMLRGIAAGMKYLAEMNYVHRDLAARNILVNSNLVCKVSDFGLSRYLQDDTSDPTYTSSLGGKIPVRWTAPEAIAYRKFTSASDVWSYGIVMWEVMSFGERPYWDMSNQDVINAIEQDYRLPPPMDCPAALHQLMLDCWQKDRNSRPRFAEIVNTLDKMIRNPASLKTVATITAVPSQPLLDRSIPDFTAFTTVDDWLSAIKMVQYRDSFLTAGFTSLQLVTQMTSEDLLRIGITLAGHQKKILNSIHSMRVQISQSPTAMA

MERTK = MERTK (UniProt Q12866); assay: as above
Sequence of MERTK (Q12866 whole entry, looked up): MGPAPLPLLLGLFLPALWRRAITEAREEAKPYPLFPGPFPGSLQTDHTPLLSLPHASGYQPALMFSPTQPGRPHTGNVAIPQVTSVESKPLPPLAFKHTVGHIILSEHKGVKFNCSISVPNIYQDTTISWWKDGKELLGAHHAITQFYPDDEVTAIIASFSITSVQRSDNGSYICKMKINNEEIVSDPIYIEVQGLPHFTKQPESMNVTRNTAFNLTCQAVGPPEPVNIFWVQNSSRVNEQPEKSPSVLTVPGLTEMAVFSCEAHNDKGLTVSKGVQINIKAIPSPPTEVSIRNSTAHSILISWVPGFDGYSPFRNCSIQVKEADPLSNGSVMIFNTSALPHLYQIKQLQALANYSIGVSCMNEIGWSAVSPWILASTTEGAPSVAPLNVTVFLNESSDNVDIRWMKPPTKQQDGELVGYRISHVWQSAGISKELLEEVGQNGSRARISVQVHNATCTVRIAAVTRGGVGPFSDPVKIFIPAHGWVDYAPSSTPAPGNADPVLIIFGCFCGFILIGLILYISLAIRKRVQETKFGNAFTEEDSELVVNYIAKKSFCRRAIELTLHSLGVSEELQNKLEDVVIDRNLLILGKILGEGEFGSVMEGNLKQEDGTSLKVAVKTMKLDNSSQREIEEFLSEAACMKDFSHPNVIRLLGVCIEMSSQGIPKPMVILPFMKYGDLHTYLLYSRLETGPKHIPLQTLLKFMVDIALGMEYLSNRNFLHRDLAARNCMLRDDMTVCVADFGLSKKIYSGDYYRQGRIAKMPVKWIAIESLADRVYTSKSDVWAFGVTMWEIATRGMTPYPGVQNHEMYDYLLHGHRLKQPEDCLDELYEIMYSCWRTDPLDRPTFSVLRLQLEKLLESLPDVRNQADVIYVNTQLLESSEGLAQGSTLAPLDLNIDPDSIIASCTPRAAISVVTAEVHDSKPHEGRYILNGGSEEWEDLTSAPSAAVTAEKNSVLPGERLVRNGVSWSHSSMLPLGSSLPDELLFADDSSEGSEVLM

EPHB2 = EPHB2 (UniProt P29323); assay: as above
Sequence of EPHB2 (P29323 whole entry, looked up): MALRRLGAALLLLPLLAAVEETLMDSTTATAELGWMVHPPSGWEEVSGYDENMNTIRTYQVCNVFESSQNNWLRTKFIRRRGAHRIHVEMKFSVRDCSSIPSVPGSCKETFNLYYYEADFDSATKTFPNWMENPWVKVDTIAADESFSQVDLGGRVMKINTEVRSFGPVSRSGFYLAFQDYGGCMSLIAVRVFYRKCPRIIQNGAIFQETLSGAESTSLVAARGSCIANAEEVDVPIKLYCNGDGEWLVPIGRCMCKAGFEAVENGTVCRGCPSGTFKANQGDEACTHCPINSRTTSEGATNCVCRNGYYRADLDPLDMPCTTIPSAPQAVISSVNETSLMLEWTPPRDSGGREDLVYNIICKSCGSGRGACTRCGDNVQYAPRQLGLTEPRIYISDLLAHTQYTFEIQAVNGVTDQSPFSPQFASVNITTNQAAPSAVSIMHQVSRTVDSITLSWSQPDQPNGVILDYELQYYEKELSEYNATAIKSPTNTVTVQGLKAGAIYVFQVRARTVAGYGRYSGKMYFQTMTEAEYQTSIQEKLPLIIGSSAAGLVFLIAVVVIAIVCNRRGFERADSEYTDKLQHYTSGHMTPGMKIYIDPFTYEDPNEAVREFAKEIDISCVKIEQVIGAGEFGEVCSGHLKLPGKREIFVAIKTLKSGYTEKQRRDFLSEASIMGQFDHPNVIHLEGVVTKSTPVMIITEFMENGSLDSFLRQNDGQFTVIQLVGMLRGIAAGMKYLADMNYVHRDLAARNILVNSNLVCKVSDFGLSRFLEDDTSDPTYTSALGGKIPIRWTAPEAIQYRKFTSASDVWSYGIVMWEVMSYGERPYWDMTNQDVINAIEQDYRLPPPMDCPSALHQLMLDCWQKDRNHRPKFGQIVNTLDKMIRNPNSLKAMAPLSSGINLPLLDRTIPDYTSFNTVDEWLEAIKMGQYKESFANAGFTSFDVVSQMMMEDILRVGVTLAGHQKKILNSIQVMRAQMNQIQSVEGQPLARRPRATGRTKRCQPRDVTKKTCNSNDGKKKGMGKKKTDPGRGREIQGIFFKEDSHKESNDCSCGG

Jak2 = Jak2 (UniProt O60674); assay: as above
AncSZ = assay: as above
Fer (mouse) = assay: as above
FGFR3 = FGFR3 (UniProt P22607); assay: as above
Grb2 SH2 = Grb2 SH2 (UniProt P62993); assay: SH2 binding enrichment of the phosphorylated peptide, bacterial display (enrichment ratio); higher = better substrate or ligand; peptides without Tyr show the background
Sequence of Grb2 SH2 (P62993 whole entry, looked up): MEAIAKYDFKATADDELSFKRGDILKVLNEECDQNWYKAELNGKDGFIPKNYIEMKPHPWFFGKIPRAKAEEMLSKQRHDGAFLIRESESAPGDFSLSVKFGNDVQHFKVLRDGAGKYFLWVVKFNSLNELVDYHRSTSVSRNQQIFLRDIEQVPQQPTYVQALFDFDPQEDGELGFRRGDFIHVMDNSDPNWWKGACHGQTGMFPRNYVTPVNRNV

SHP2-C SH2 = assay: as above
c-Src SH2 = assay: as above
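Wherever SH2 binding enrichment of the phosphorylated peptide, bacterial display is given: peptide library displayed on the E. coli surface as eCPX fusions, selected cells deep-sequenced, score is each peptide's frequency after selection divided by its frequency in the input.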
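Wherever phosphorylation enrichment, bacterial display is given: 11-residue human phosphosite peptides and single-mutation variants displayed on the E. coli surface, counted by deep sequencing, each peptide's frequency after selection divided by its frequency in the unselected input library; frequency after pTyr selection over input frequency; kinase dosed for 20-30% of maximal phosphorylation in three min.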

Sequence of FGFR1 (P11362 whole entry, looked up): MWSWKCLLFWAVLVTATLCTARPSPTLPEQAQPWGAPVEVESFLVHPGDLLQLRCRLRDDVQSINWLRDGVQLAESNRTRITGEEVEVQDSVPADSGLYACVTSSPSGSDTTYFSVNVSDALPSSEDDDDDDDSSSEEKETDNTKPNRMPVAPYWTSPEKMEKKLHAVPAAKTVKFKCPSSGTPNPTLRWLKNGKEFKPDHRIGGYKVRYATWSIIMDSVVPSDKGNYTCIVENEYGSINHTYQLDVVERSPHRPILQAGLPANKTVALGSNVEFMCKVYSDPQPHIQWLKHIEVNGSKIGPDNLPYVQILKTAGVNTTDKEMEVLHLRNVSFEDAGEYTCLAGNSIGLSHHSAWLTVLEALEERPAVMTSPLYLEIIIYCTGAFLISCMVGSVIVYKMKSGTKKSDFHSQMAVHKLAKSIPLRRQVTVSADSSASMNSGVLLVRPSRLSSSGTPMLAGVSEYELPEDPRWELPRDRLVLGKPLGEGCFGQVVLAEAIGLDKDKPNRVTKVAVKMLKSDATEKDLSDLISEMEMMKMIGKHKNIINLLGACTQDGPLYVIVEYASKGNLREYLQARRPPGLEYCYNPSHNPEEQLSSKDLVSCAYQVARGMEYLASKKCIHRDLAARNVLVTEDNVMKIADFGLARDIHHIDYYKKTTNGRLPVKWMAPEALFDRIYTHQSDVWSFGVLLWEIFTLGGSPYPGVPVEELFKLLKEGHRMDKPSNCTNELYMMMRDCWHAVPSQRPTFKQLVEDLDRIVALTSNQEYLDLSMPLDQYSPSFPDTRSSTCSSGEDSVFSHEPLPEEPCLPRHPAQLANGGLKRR

Sequence | phosphorylation enrichment (c-Abl (mouse)) | phosphorylation enrichment (Fyn) | phosphorylation enrichment (FGFR1) | phosphorylation enrichment (Hck) | phosphorylation enrichment (Fes) | phosphorylation enrichment (c-Src) | phosphorylation enrichment (EPHB1) | phosphorylation enrichment (MERTK) | phosphorylation enrichment (EPHB2) | phosphorylation enrichment (Jak2) | phosphorylation enrichment (AncSZ) | phosphorylation enrichment (Fer (mouse)) | phosphorylation enrichment (FGFR3) | SH2 binding enrichment (Grb2 SH2) | SH2 binding enrichment (SHP2-C SH2) | SH2 binding enrichment (c-Src SH2)
RENGPYYTSYP [GDAP2_Y487] | 1.55 | 2.55 | 3.44 | 1.98 | 1.05 | 3.17 | 0.896 | 5.69 | 1.45 | 0.863 | 1.17 | 0.618 | 3.32 | 1.09 | 0.597 | 0.955
REVPVYTYSEP [FAM120B_Y368_D370Y] | 1.97 | 9.05 | 1.56 | 4.16 | 1.82 | 5.2 | 3.19 | 5.36 | 2.33 | 1.13 | 3.86 | 12.9 | 1.81 | 0.853 | 0.614 | 3.29
RFMELYDLNRD [BBS2_Y648_YF] | 0.556 | 1.25 | 0.762 | 1.14 | 1.28 | 2.04 | 0.61 | 0.459 | 0.812 | 0.909 | 1.28 | 0.703 | 0.883 | 1.02 | 1.06 | 0.563
RGDTVYTVNCM [KBTBD13_Y404_R408C] | 0.697 | 3.11 | 0.479 | 1.21 | 1.08 | 2.45 | 0.692 | 0.734 | 0.636 | 0.844 | 0.937 | 0.547 | 0.686 | 0.752 | 0.793 | 0.475
RGEKQYLATPL [ALOX12_Y295_A298T] | 1.02 | 0.665 | 1.06 | 0.484 | 1.01 | 0.812 | 0.598 | 0.53 | 0.342 | 0.931 | 0.861 | 0.571 | 0.711 | 0.784 | 0.766 | 0.569
RGFRQYAFDGK [HLA-A_Y140_D140Y_YF] | 0.595 | 0.546 | 0.557 | 0.711 | 0.66 | 0.653 | 0.715 | 0.584 | 0.51 | 0.381 | 0.77 | 0.425 | 0.779 | 0.832 | 0.794 | 0.534
RHFSSYSQMEN [PKP1_Y120_R116H] | 0.413 | 0.551 | 0.776 | 0.551 | 1 | 0.414 | 0.632 | 0.562 | 0.768 | 0.545 | 1.02 | 0.603 | 0.688 | 0.991 | 0.991 | 2.71
RHSGSYLVTSV [APC_Y2838] | 0.611 | 0.431 | 0.438 | 0.616 | 0.863 | 0.463 | 0.505 | 0.682 | 0.559 | 0.963 | 0.759 | 0.51 | 0.451 | 0.791 | 0.914 | 0.604
RILENYGADID [DNAH5_Y596_L591R] | 0.951 | 0.726 | 0.765 | 0.494 | 1.06 | 0.56 | 0.717 | 0.51 | 0.719 | 1.14 | 1.17 | 0.403 | 0.695 | 0.525 | 0.474 | 0.802
RIRRRYCQVLN [IQCF1_Y144] | 0.455 | 0.583 | 0.708 | 0.826 | 1.11 | 0.575 | 0.784 | 0.609 | 0.592 | 0.614 | 0.673 | 0.835 | 0.703 | 0.666 | 0.438 | 0.482
RIVEIYTRRLQ [GCH1_Y175_S176T] | 0.517 | 0.543 | 0.515 | 0.613 | 0.949 | 1.01 | 0.503 | 0.605 | 0.462 | 0.637 | 0.936 | 0.436 | 0.632 | 0.756 | 0.58 | 0.325
RKKEEYKMAPY [F8_Y1990_L1994P] | 1.03 | 0.939 | 1.18 | 1.06 | 1.33 | 0.816 | 0.583 | 0.933 | 0.865 | 1.1 | 1.16 | 0.926 | 0.941 | 1.32 | 1.02 | 0.721
RKKLFYKADGE [SERPINC1_Y272_E269K] | 0.894 | 0.621 | 0.528 | 0.657 | 0.648 | 0.778 | 0.34 | 0.531 | 0.579 | 0.732 | 0.624 | 0.587 | 0.473 | 0.733 | 0.628 | 0.338
RKQQLYTAMEE [CCDC39_Y593] | 0.677 | 0.529 | 0.431 | 0.855 | 0.963 | 0.583 | 0.707 | 2.02 | 0.534 | 0.836 | 0.933 | 0.672 | 0.757 | 1.29 | 0.576 | 3.25
RLCQDYDTIGP [ANK1_Y1073] | 0.964 | 0.838 | 0.541 | 1.61 | 1.44 | 0.971 | 2.96 | 0.602 | 3.94 | 0.778 | 1.88 | 1.05 | 0.976 | 1.35 | 0.814 | 1.61
RLDPVYFVAPA [LAMC2_Y250] | 1.82 | 11.5 | 6.89 | 8.92 | 0.787 | 7.69 | 5.28 | 5.95 | 4.85 | 1.73 | 1.46 | 0.523 | 5.76 | 0.897 | 0.915 | 0.594
RLKAKYAAATG [GLI3_Y933] | 0.601 | 0.379 | 0.36 | 0.464 | 0.611 | 0.529 | 0.421 | 0.414 | 0.526 | 0.692 | 0.64 | 0.486 | 0.395 | 0.811 | 0.698 | 0.511

Sequence | phosphorylation enrichment (c-Abl (mouse)) | phosphorylation enrichment (Fyn) | phosphorylation enrichment (FGFR1) | phosphorylation enrichment (Hck) | phosphorylation enrichment (Fes) | phosphorylation enrichment (c-Src) | phosphorylation enrichment (EPHB1) | phosphorylation enrichment (MERTK) | phosphorylation enrichment (EPHB2) | phosphorylation enrichment (Jak2) | phosphorylation enrichment (AncSZ) | phosphorylation enrichment (Fer (mouse)) | phosphorylation enrichment (FGFR3) | SH2 binding enrichment (Grb2 SH2) | SH2 binding enrichment (SHP2-C SH2) | SH2 binding enrichment (c-Src SH2)
RLKAKYPAATG [GLI3_Y933_A934P] | 1.14 | 0.755 | 0.716 | 0.787 | 0.969 | 0.818 | 0.708 | 0.639 | 0.697 | 0.905 | 0.713 | 0.604 | 0.941 | 1.48 | 1.25 | 1.48
RLLRGYNQSAY [HLA-C_Y137_D138N] | 0.36 | 0.41 | 0.386 | 0.507 | 0.412 | 0.267 | 0.538 | 0.275 | 0.454 | 0.307 | 0.44 | 0.321 | 0.499 | 1.11 | 1.09 | 0.825
RLNCIYFKDQT [RS1_Y165_W163C_YF] | 1.05 | 0.59 | 0.683 | 0.77 | 1.32 | 1.08 | 0.827 | 0.871 | 0.732 | 1.3 | 1.16 | 0.56 | 0.599 | 1.05 | 0.818 | 0.711
RLPINYTTRRI [LAMA2_Y2894_G2889R] | 0.638 | 0.35 | 0.743 | 0.534 | 0.602 | 0.626 | 0.433 | 0.663 | 0.519 | 0.547 | 0.873 | 0.289 | 0.839 | 0.76 | 0.636 | 0.471
RMLREYQELMS [KRT74_Y425] | 0.663 | 0.699 | 0.95 | 0.532 | 0.837 | 0.57 | 0.66 | 0.527 | 0.432 | 0.611 | 0.821 | 0.357 | 0.555 | 1.13 | 0.962 | 5.24
RMSQRYGDVLQ [CYP1A2_Y72] | 0.747 | 0.431 | 0.89 | 0.336 | 0.967 | 0.595 | 0.399 | 0.481 | 0.41 | 0.744 | 1.03 | 0.644 | 0.769 | 0.788 | 0.518 | 0.294
RMSQRYRDVLQ [CYP1A2_Y72_G73R] | 0.769 | 0.593 | 0.484 | 0.66 | 1.08 | 0.745 | 0.422 | 0.522 | 0.719 | 0.905 | 1.11 | 0.396 | 0.549 | 0.719 | 0.548 | 0.495
RNESFYDTFST [EFCAB3_Y372] | 2.23 | 16.4 | 0.852 | 14.3 | 1.46 | 10.5 | 17.3 | 15.6 | 21 | 0.891 | 1.07 | 13.2 | 0.915 | 0.826 | 0.913 | 0.542
RNNIEYVRDIG [MUSK_Y577] | 0.602 | 0.369 | 0.413 | 0.395 | 0.693 | 0.416 | 0.437 | 0.3 | 0.404 | 0.436 | 0.676 | 0.426 | 0.58 | 1.21 | 0.725 | 0.634
RPFRPYIIRGM [LRP5_Y1531_YF] | 0.532 | 0.611 | 1.03 | 0.655 | 1.2 | 0.647 | 0.633 | 0.781 | 0.709 | 0.748 | 1.14 | 0.456 | 0.88 | 0.735 | 0.625 | 0.482
RPGGRYPVARR [SHANK3_Y1569_S1566G] | 0.657 | 0.647 | 0.648 | 0.626 | 0.899 | 0.664 | 0.468 | 0.775 | 0.563 | 0.478 | 0.734 | 0.667 | 0.599 | 0.749 | 0.433 | 0.492
RQAQAYRGQRV [TSHR_Y706] | 1.25 | 1 | 1.23 | 0.839 | 1.51 | 1.36 | 0.564 | 0.831 | 0.99 | 1.62 | 1.82 | 0.909 | 1 | 0.691 | 0.665 | 0.385
RQQQDYWLMDV [ANPEP_Y600_I603M] | 0.587 | 0.537 | 18 | 0.487 | 1.01 | 0.509 | 7.32 | 3.29 | 3.72 | 1.26 | 1.8 | 1.03 | 13.1 | 0.896 | 0.815 | 0.634
RQSTLYSFFPK [MSH6_Y8] | 5.61 | 5.84 | 6.8 | 14.6 | 1.77 | 7.83 | 18.4 | 22.1 | 18.9 | 0.685 | 1.34 | 4.37 | 5.16 | 1.47 | 1.19 | 1.03
RRETPYGGGGG [FUS_Y526_R524T] | 0.487 | 0.718 | 0.957 | 0.604 | 0.68 | 0.628 | 0.568 | 0.721 | 0.62 | 0.551 | 0.769 | 0.438 | 1.07 | 0.685 | 0.54 | 0.477
RRIYSYRGHLW [VHL_Y112_H110Y] | 0.776 | 0.986 | 1.2 | 0.667 | 1.68 | 1.26 | 1.17 | 1.24 | 0.659 | 0.691 | 1.45 | 1.02 | 0.725 | 0.774 | 0.465 | 0.501
